# Experimental data reported in patent publication US9618524B2, “Method, composition, isolation and identification of a plaque particle and related biomarker” (Plaxgen Inc., priority 2012, dated 2017).
# B1: Ig heavy chain V-I region HG3 (protein)
# chain: QVQLVQSGAEVKKPGASVKVSCKASGYTFTSYYMHWVRQAPGQGLEWMGIINPSGGSTSYAQKFQGRVTMTRDTSTSTVYMELSSLRSEDTAVYYCAR
# B2: Cluster of Keratin, type II cytoskeletal 2 epidermal (protein, UniProt P35908 1-639, looked up)
# Keratin, type II cytoskeletal …: MSCQISCKSRGRGGGGGGFRGFSSGSAVVSGGSRRSTSSFSCLSRHGGGGGGFGGGGFGSRSLVGLGGTKSISISVAGGGGGFGAAGGFGGRGGGFGGGSSFGGGSGFSGGGFGGGGFGGGRFGGFGGPGGVGGLGGPGGFGPGGYPGGIHEVSVNQSLLQPLNVKVDPEIQNVKAQEREQIKTLNNKFASFIDKVRFLEQQNQVLQTKWELLQQMNVGTRPINLEPIFQGYIDSLKRYLDGLTAERTSQNSELNNMQDLVEDYKKKYEDEINKRTAAENDFVTLKKDVDNAYMIKVELQSKVDLLNQEIEFLKVLYDAEISQIHQSVTDTNVILSMDNSRNLDLDSIIAEVKAQYEEIAQRSKEEAEALYHSKYEELQVTVGRHGDSLKEIKIEISELNRVIQRLQGEIAHVKKQCKNVQDAIADAEQRGEHALKDARNKLNDLEEALQQAKEDLARLLRDYQELMNVKLALDVEIATYRKLLEGEECRMSGDLSSNVTVSVTSSTISSNVASKAAFGGSGGRGSSSGGGYSSGSSSYGSGGRQSGSRGGSGGGGSISGGGYGSGGGSGGRYGSGGGSKGGSISGGGYGSGGGKHSSGGGSRGGSSSGGGYGSGGGGSSSVKGSSGEAFGSSVTFSFR
# B3: Isoform 2 of C4b-binding protein beta chain (protein)
# chain: ASDEHCPELPPVDNSIFVAKEVEGQILGTYVCIKGYHLVGKKTLFCNASKEWDNTTTECRLGHCPDPVLVNGEFSSSGPVNVSDKITFMCNDHYILKGSNRSQCLEDHTWAPPFPICKSRDCDPPGNPVHGYFEGNNFTLGSTISYYCEDRYYLVGVQEQQCVDGEWSSALPVCKLIQEAPKPECEKALLAFQESKNLCEAMENFMQQLKESGMTMEELKYSLELKKAELKAKLL
# B4: Galectin-3-binding protein (protein)
# chain: VNDGDMRLADGGATNQGRVEIFYRGQWGTVCDNLWDLTDASVVCRALGFENATQALGRAAFGQGSGPIMLDEVQCTGTEASLADCKSLGWLKSNCRHERDAGVVCTNETRSTHTLDLSRELSEALGQIFDSQRGCDLSISVNVQGEDALGFCGHTVILTANLEAQALWKEPGSNVTMSVDAECVPMVRDLLRYFYSRRIDITLSSVKCFHKLASAYGARQLQGYCASLFAILLPQDPSFQMPLDLYAYAVATGDALLEKLCLQFLAWNFEALTQAEAWPSVPTDLLQLLLPRSDLAVPSELALLKAVDTWSWGERASHEEVEGLVEKIRFPMMLPEELFELQFNLSLYWSHEALFQKKTLQALEFHTVPFQLLARYKGLNLTEDTYKPRIYTSPTWSAFVTDSSWSARKSQLVYQSRRGPLVKYSSDYFQAPSDYRYYPYQSFQTPQHPSFLFQDKRVSWSLVYLPTIQSCWNYGFSCSSDELPVLGLTKSGGSDRTIAYENKALMLCEGLFVADVTDFEGWKAAIPSALDTNSSKSTSSFPCPAGHFNGFRTVIRPFYLTNSSGVD
# B5: Complement factor H-related protein 1 (protein)
# chain: EATFCDFPKINHGILYDEEKYKPFSQVPTGEVFYYSCEYNFVSPSKSFWTRITCTEEGWSPTPKCLRLCFFPFVENGHSESSGQTHLEGDTVQIICNTGYRLQNNENNISCVERGWSTPPKCRSTDTSCVNPPTVQNAHILSRQMSKYPSGERVRYECRSPYEMFGDEEVMCLNGNWTEPPQCKDSTGKCGPPPPIDNGDITSFPLSVYAPASSVEYQCQNLYQLEGNKRITCRNGQWSEPPKCLHPCVISREIMENYNIALRWTAKQKLYLRTGESAEFVCKRGYRLSSRSHTLRTTCWDGKLEYPTCAKR
# B6: Heterogeneous nuclear ribonucleoprotein R (protein)
# chain: ANQVNGNAVQLKEEEEPMDTSSVTHTEHYKTLIEAGLPQKVAERLDEIFQTGLVAYVDLDERAIDALREFNEEGALSVLQQFKESDLSHVQNKSAFLCGVMKTYRQREKQGSKVQESTKGPDEAKIKALLERTGYTLDVTTGQRKYGGPPPDSVYSGVQPGIGTEVFVGKIPRDLYEDELVPLFEKAGPIWDLRLMMDPLSGQNRGYAFITFCGKEAAQEAVKLCDSYEIRPGKHLGVCISVANNRLFVGSIPKNKTKENILEEFSKVTEGLVDVILYHQPDDKKKNRGFCFLEYEDHKSAAQARRRLMSGKVKVWGNVVTVEWADPVEEPDPEVMAKVKVLFVRNLATTVTEEILEKSFSEFGKLERVKKLKDYAFVHFEDRGAAVKAMDEMNGKEIEGEEIEIVLAKPPDKKRKERQAARQASRSTAYEDYYYHPPPRMPPPIRGRGRGGGRGGYGYPPDYYGYEDYYDDYYGYDYHDYRGGYEDPYYGYDDGYAVRGRGGGRGGRGAPPPPRGRGAPPPRGRAGYSQRGAPLGPPRGSRGGRGGPAQQQRGRGSRGSRGNRGGNVGGKRKADGYNQPDSKRRQTNNQQNWGSQPIAQQPLQQGGDYSGNYGYNNDNQEFYQDTYGQQWK
# B7: Apolipoprotein F (protein)
# chain: SLPTEDCENEKEQAVHNVVQLLPGVGTFYNLGTALYYATQNCLGKARERGRDGAIDLGYDLLMTMAGMSGGPMGLAISAALKPALRSGVQQLIQYYQDQKDANISQPETTKEGLRAISDVSDLEETTTLASFISEVVSSAPYWGWAIIKSYDLDPGAGSLEI
# B8: Serpin B3 (protein)
# chain: MNSLSEANTKFMFDLFQQFRKSKENNIFYSPISITSALGMVLLGAKDNTAQQIKKVLHFDQVTENTTGKAATYHVDRSGNVHHQFQKLLTEFNKSTDAYELKIANKLFGEKTYLFLQEYLDAIKKFYQTSVESVDFANAPEESRKKINSWVESQTNEKIKNLIPEGNIGSNTTLVLVNAIYFKGQWEKKFNKEDTKEEKFWPNKNTYKSIQMMRQYTSFHFASLEDVQAKVLEIPYKGKDLSMIVLLPNEIDGLQKLEEKLTAEKLMEWTSLQNMRETRVDLHLPRFKVEESYDLKDTLRTMGMVDIFNGDADLSGMTGSRGLVLSGVLHKAFVEVTEEGAEAAAATAVVGFGSSPTSTNEEFHCNHPFLFFIRQNKTNSILFYGRFSSP
# B9: Ig kappa chain V-I region BAN (protein)
# chain: DIQMTQSPSSLSASVGDRVTITCRASQGISNYLAWFQQKPGKAPKSLIYAASSLQSGVPSKFSGSGSGTDFTLTISSLQPEDFATYYCQQYNSYP
# Target: T1, Abeta-42 plaque particles (Homo sapiens, UniProt P05067)
# T1 construct: Abeta 1-42
# Assay: Mass spectroscopy proteomics, semi-quantitative binding affinity of serum proteins (plaqueproteome, Table 2)
# Settings: higher number = stronger affinity
# In short: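 AD patient serum or plasma (50% in PBS) was incubated with Abeta-42 aggregates (30 μg) for 1 h at 37 °C, then stained with Thioflavin S for 30 min. Labeled particles were FACS-sorted, trypsin/Lys-C digested overnight and analyzed by MS/MS. Sequest searched human UniProt; Scaffold/Protein Prophet validated the identifications.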
row,Molecule,Semi-quantitative analysis of proteins binding to different plaque particles: Abeta-42
1,B1,2
2,B2,171
3,B3,0
4,B4,0
5,B5,0
6,B6,2
7,B7,0
8,B8,2
9,B9,2

# Test system: Tau plaque particles
# Assay: as above
# Design: species or system human
# Settings: higher number = stronger affinity
# In short: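 Serum or plasma proteins captured on Thioflavin S-labelled Tau plaque particles (Tau-74, Tau-275 oligomers preformed in PBS at 37° C for 2 h; 1 h co-incubation at 37° C) were isolated by FACS sorting, then tryptically digested and identified by MS/MS (Sequest, human UniProt, strict trypsin).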
row,Molecule,Semi-quantitative analysis of proteins binding to different plaque particles: Tau
1,B1,1
2,B2,24
3,B3,0
4,B4,0
5,B5,1
6,B6,0
7,B7,1
8,B8,0
9,B9,2

# Test system: Low density cholesterol (Chl small) plaque particles
# Assay: as above
# Design: species or system human
# Settings: higher number = stronger affinity
# In short: (§1)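 Serum or plasma from atherosclerotic subjects, as 50% serum, was incubated with 30 μg cholesterol aggregates for 1 h at 37 °C. High- and low-density particles were then flow-sorted, trypsin-digested and analysed by MS/MS. Proteins were identified by Sequest search against human UniProt and validated with Protein Prophet.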
row,Molecule,Semi-quantitative analysis of proteins binding to different plaque particles: Chl small
1,B1,1
2,B2,20
3,B3,1
4,B4,0
5,B5,1
6,B6,0
7,B7,1
8,B8,0
9,B9,1

# Test system: High Density cholesterol (Chl Large) plaque particles
# Assay: as above
# Design: species or system human
# Settings: higher number = stronger affinity
# In short: as §1
row,Molecule,Semi-quantitative analysis of proteins binding to different plaque particles: Chl Large
1,B1,1
2,B2,14
3,B3,0
4,B4,1
5,B5,2
6,B6,0
7,B7,0
8,B8,0
9,B9,2

# Target: T2, alpha-synuclein plaque particles (Homo sapiens, UniProt P37840)
# T2 construct: 140 amino acids polypeptide
# Assay: as above
# Settings: higher number = stronger affinity
# In short: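 AD-subject plasma or serum (800 μL of 50%) mixed with 30 μg preformed alpha-synuclein aggregates for 1 h at 37 °C; Thioflavin S-positive particles isolated by flow sorting. After reduction, acrylamide alkylation and overnight tryptic digestion, serum proteins identified by MS/MS with Sequest and Scaffold.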
row,Molecule,Semi-quantitative analysis of proteins binding to different plaque particles: Synuclein
1,B1,2
2,B2,3
3,B3,0
4,B4,0
5,B5,0
6,B6,0
7,B7,2
8,B8,0
9,B9,1
